From the supplement of paper PMC9732359
± gives the uncertainty stated by the source.

Assay: protein stability index of a GFP-peptide fusion (yeast GPS) (PSI 1-4); higher = more stable; sorted into four equal gates, so the index is relative within each strain
Method in brief: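 Mid-log yeast cultures in leucine-free medium, carrying a pooled plasmid library, were sorted into four equal gates by their GFP/Cherry fluorescence ratio. Each plasmid expressed Cherry along with GFP fused upstream of a tiled 17-residue yeast protein peptide. Plasmids recovered from each gate were PCR-amplified and Illumina-sequenced, with reads assigned to strains by barcodes. The protein stability index was obtained by summing each gate's read frequency weighted by its gate number.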

| Sequence | protein stability index (doa10∆) | protein stability index (pdr5∆) | protein stability index (san1∆) | protein stability index (ubr1∆) |
| --- | --- | --- | --- | --- |
| DMAILERYYELAFDKLN [ARP7] | 1.3 ± 0.09 | 1.6 ± 0.1 | 1.31 ± 0.16 | 1.54 ± 0.18 |
| ISIDSWPTTHKYPLGHF [DIS3] | 2.38 ± 0.077 | 2.74 ± 0.11 | 3.04 ± 0.082 | 2.81 ± 0.072 |
| ETKVDELRYQSHILNSH [DSN1] | 2.38 ± 0.067 | 2.84 ± 0.057 | 2.79 ± 0.055 | 3 ± 0.05 |
| RQFEVKQLQLAMHNSKA [POP1] | 1.95 ± 0.055 | 2.17 ± 0.059 | 1.77 ± 0.088 | 1.61 ± 0.038 |
| NQKIPDNVIVINHKINN [SIR3] | 1.93 ± 0.06 | 2.03 ± 0.053 | 1.79 ± 0.066 | 2.14 ± 0.041 |
| DHEFVLISLIMTTWRKL [YMR129W/POM152] | 1.3 ± 0.12 | 1.09 ± 0.075 | 1.1 ± 0.14 | 1.26 ± 0.07 |
| WTIPHKKWNDLKNKNFK [SIR2] | 3.22 ± 0.14 | 3.38 ± 0.13 | 3.29 ± 0.11 | 3.23 ± 0.073 |
| NLVKEKEALQNNIFKEF [SMC1] | 3.51 ± 0.12 | 3.06 ± 0.12 | 2.99 ± 0.12 |  |
| LNTLFNPVTLNEDSKAF [NUT1] | 2.57 ± 0.062 | 1.84 ± 0.057 | 1.65 ± 0.091 | 1.92 ± 0.043 |
| NFLDNCLFENDLQRLKP [ITC1] | 2.61 ± 0.051 | 3.07 ± 0.063 | 2.94 ± 0.048 | 3.06 ± 0.034 |
| AQSHQRFNAKVSMVKRA [CDC53] | 1.34 ± 0.045 | 2.09 ± 0.061 | 1.56 ± 0.16 | 1.64 ± 0.031 |
| QQLAYDLSISALLGDKI [RPN9] | 2.4 ± 0.052 | 2.67 ± 0.058 | 2.47 ± 0.075 | 2.15 ± 0.064 |
| SPVTGDNSPSEDFMDIP [SNF2] | 3.21 ± 0.12 | 3.25 ± 0.1 | 2.81 ± 0.17 | 3.42 ± 0.058 |
| EDFDVEHFSDEETYEEK [RPO26] | 3.64 ± 0.11 | 3.05 ± 0.2 | 3.19 ± 0.22 | 3.45 ± 0.11 |
| KRKSAQEPELSLDQGDA [SMC4] | 3.23 ± 0.1 | 3.19 ± 0.1 | 3.09 ± 0.17 | 3.39 ± 0.099 |
| DVLKSQANTEPENITKR [MCD1] | 3.06 ± 0.1 | 3.02 ± 0.083 | 2.98 ± 0.057 | 3.09 ± 0.046 |
| YFLKVTFLKYFGWLLSD [IRR1] | 1.75 ± 0.074 | 1.59 ± 0.054 | 1.88 ± 0.09 | 1.8 ± 0.062 |
| NPSITRLEEESSWQIYS [RRP4] |  | 3.07 ± 0.21 |  | 2.07 ± 0.097 |
| LHYCVSCAIHARIVRVR [RPS26A] | 1.17 ± 0.066 | 1.2 ± 0.083 | 1.15 ± 0.13 | 1.2 ± 0.12 |
| NTKEIAVDLEHHDYRSY [RRP6] | 2.93 ± 0.06 | 3.07 ± 0.048 | 3.15 ± 0.056 | 3.054 ± 0.03 |
| KDKGVYVVTSDEHPKTL [SIR2] | 2.78 ± 0.076 | 3.24 ± 0.075 | 3.25 ± 0.055 | 2.98 ± 0.079 |
| KIALMNIPKPLNSYHIK [RGR1] | 1.65 ± 0.033 | 1.81 ± 0.028 | 1.69 ± 0.041 | 1.83 ± 0.022 |
| QVEKLGKKMEARGQSIW [RPN9] | 1.34 ± 0.15 | 1.14 ± 0.081 |  | 1.18 ± 0.22 |
| NNAVRFSKQCLISNAIY [ECM29] | 1.7 ± 0.078 | 2.39 ± 0.088 | 1.82 ± 0.11 | 1.08 ± 0.094 |
| ERKLKFSNRFLPVASPF [FAS1] | 3.02 ± 0.12 | 3.16 ± 0.11 | 2.91 ± 0.094 | 2.85 ± 0.099 |
| TYVITKNGKIYLKHNSI [RET1] | 2.72 ± 0.053 | 2.54 ± 0.046 | 2.45 ± 0.067 | 2.64 ± 0.028 |
| NKKLIKKLSKKYNAFIA [RPL1A] | 1.45 ± 0.048 | 1.94 ± 0.052 | 1.45 ± 0.12 | 1.88 ± 0.049 |
